1 substance from paper PMC12175908 can be followed below.

This experiment deals with Paxillin N-domain (residues 1 to 311) (human) (UniProt P49023). The experiment is described as follows: NMR titration; 100 μM 15N-PXN N-domain, unlabeled FAT added (10 to 300 μM); 2D 1H-15N HSQC, decay of amide peak intensity per LD motif, fraction bound against total FAT; effective (relative) constants for single LD motifs; 100 mM potassium phosphate, 1 mM TCEP, 0.1 mM EDTA, pH 7.0, 10°C.
Sequence of UniProt P49023 (P49023 other isoform, or with tags, fused parts or gaps): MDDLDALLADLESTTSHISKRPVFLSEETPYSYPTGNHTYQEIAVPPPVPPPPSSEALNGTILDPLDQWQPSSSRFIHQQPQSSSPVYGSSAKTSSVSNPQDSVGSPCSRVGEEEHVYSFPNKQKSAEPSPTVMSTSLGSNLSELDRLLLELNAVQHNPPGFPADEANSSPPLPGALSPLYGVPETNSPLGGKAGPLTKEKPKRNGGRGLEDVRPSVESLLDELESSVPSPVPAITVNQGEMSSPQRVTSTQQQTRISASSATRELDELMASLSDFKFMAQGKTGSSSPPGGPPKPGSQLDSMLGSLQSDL

“focal adhesion targeting (FAT) domain of focal adhesion kinase (domain or fragment)” returned an effective Kd of the LD1 motif of 17 µM, an effective Kd of the LD2 motif of 7000 µM and an effective Kd of the LD4 motif of 13 µM.
